Values of other authors as cited in paper PMC3103538.

Tests used:
Asp7 = Asp7 (UniProt position 255, MKQLEDKVEEL)
Cterm32 = Cterm32 (UniProt position 280, KKLVGER----)
Glu10 = Glu10 (UniProt position 258, LEDKVEELLSK)
Glu11 = Glu11 (UniProt position 259, EDKVEELLSKN)
Glu20 = Glu20 (UniProt position 268, KNYHLENEVAR)
Glu22 = Glu22 (UniProt position 270, YHLENEVARLK)
Glu32 = Glu32 (UniProt position 280, KKLVGER----)
Glu6 = Glu6 (UniProt position 254, SMKQLEDKVEE)
His18 = His18 (UniProt position 266, LSKNYHLENEV)
Lys15 = Lys15 (UniProt position 263, EELLSKNYHLE)
Lys27 = Lys27 (UniProt position 275, EVARLKKLVGE)
Lys28 = Lys28 (UniProt position 276, VARLKKLVGER)
Lys3 = Lys3 (UniProt position 251, KLQSMKQLEDK)
Lys8 = Lys8 (UniProt position 256, KQLEDKVEELL)
Nterm0 = Nterm0 (UniProt position 248, RARKLQRMKQL)
Tyr17 = Tyr17 (UniProt position 265, LLSKNYHLENE)

In the case of “GCN4 leucine zipper (33-residue fragment, GCN4p1-type) (Saccharomyces cerevisiae; R1S; insertion of Gly0 before residue 1 (Arg1 substituted by the dipeptide Gly0-Ser1))”, the pKa (Asp7) is listed as 3.48, the pKa (Cterm32) is listed as 4.03 and the pKa (Glu10) is listed as 3.94. For the same substance, the pKa (Glu11) was 4.05, the pKa (Glu20) was 4.38 and the pKa (Glu22) was 4.2. The pKa (Glu32) was 4.62, the pKa (Glu6) was 4.6 and the pKa (His18) was 6.24. The pKa (Lys15) was 10.62, the pKa (Lys27) was 11.1 and the pKa (Lys28) was 10.64. For the same substance, the pKa (Lys3) was 10.78, the pKa (Lys8) was 11.26 and the pKa (Nterm0) was 7.88. The pKa (Tyr17) was 9.82.
